T1: human IL-18 (human, UniProt Q14116 37-193)
T1 sequence (looked up): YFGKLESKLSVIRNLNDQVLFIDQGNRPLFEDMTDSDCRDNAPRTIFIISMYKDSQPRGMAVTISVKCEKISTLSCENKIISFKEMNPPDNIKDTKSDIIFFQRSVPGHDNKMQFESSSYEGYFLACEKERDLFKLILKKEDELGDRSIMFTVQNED


Assays:
human IL-18 [1] = target: T1, human IL-18; experiment: cell-based or functional assay
human IL-18 [2] = target: T1, human IL-18; experiment: BIAcore optical biosensor, 25 C; mAb captured on anti-rat IgG Fc surface, IL-18 injected
Procedure: (§1) Kinetic data was evaluated using relationships described previously (Karlsson et al, J. Immunol. Meth., 145:229-240 (1991) and which is incorporated by reference in its entirely. The mAb (diluted in HBS buffer, 10 mM HEPES, 150 mM NaCl, 0.01% Tween-20. pH 7.4) was injected over a rabbit anti-mouse IgG Fc or goat anti-rat IgG Fc surface, followed by buffer flow and the RU was recorded. IL-18 (diluted in HBS buffer) was then injected for 180 seconds followed by a buffer flow for 500 seconds and the RU was recorded. The sensor chip surface was regenerated by an injection of 0.1 M phosphoric acid.

human IL-18 [3] = target: T1, human IL-18; experiment: BIAcore optical biosensor, 25 C; mAb captured on anti-mouse IgG Fc surface, IL-18 injected
Procedure: as §1

Binder	Neutralisation IC50 (human IL-18 [1])	Kd (human IL-18 [2])	Kd (human IL-18 [3])
rat monoclonal antibody 2C10 (antibody, IgG1, V domains shown, Mab purified from a rat hybridoma, isotype IgG1 kappa; also called mAb 2C10; 2C10 (rat)) VH: EVQLQQSGAELVRPGTSVKLSCKVSGEISTGYYFHFVRRRPGQGLEWIGRIDPEDDSTKYAERFKDRATLTAQTSSNTAYLNLSSLTSEDTATYFCTTWRIYRDSSGRPFYVMDAWGQGASVTVSS VL: DIQMTQSPASLSASLGETVSIECLASEDIYTYLTWYQQKPGKSPQLLIYGANKLQDGVPSRFSGSGSGTQYSLKISGIQPEDEGDYFCLQGSKFPLTFGSGTKLEIKR	0.1 nM	0.039 nM	
rat monoclonal antibody 14B7 (antibody, IgG1, V domains shown, Mab purified from a rat hybridoma, isotype IgG1 kappa; also called mAb 14B7; 14B7 (rat)) VH: EVQLQQSGAELVRPGTSVKFSCKVSGDTPTTYYVHFVRQRPGQGLEWIGRIDPEDTSTKYAEKFRNKATFTADPSSNTAYLNLSSLTPEDTATYFCTIMRYHSTYRVYVMDFWGQGTAVTVS VL: DIQMTQSPASLSASLGETVSIECLASEDIYSYLAWYQQKPGKSPQLLIYATKRLQDGVPSRFSGSGSGTQYSLKISDMQPEDEGDYFCLQNSKFPVTFGSGTKLEIKR	0.2 nM	0.15 nM	
murine monoclonal antibody 13G9 (antibody, IgG1, V domains shown, Mab purified from a mouse hybridoma, isotype IgG1 kappa; also called mAb 13G9; 13G9 (mouse)) VH: QVTLKESGPGILKPSQTLSLTCSFSGFSLSTSGMGIAWVRQPSGKGLEWLADIWWDDNKYYNPSLESQLTISKDTSRNQVFLTITSVDTADSATYYCARHHYDGSSLLPMDYWGQGTSVTVSS VL: DVVMTQTPLSLPVSLGDQASISCRSSQSLVHSNGNTYLHWYLQKPGQSPKLLIYKVSNRFSGVPDRFSGSGSGTDFTLKISRVEAEDLGVYFCSQSTHVPPYTFGGGTKLEIKR	3 nM		12 nM
